In paper doi:10.1101/2025.10.11.681782:

Key:
[1] = biological target: DosR (D54E, activated form; called DosR/wild type in EMSA) D54E (Mycobacterium tuberculosis) (UniProt P9WMF9); test: EMSA
[2] = biological target: DosR M194term (helix alpha10 truncated) D54E;del194-217 (Mycobacterium tuberculosis) (UniProt P9WMF9); test: EMSA

GGCGGTTGGCAGACAACAGGGTCAATGGTCCCCAAGTGGATCACCGACGGGCGCGGACAAATGGCCCGCGCTTCGGGGACTTCTGTCCCTAGCCCTGGCCACGATGGGCTGGTCGGATCAAAGGCATCCGTTTCCATCGATTAGGAGGCAGGCACGTACGAAGGAAGGAT (double strand) [hspX promoter PCR product]
binding [1]: binds
binding [2]: binds more weakly
